In patent publication US20100003258A1 (AVEO PHARMACEUTICALS, published 2010):

T1: recombinant human FGFR3 IIIc Fc fusion protein (human, UniProt P22607 23-375)
T1 construct: Bought reagent; also called rhFGFR3 IIIc Fc; not shown: Fc fragment (removable by Factor Xa)
T1 sequence (looked up): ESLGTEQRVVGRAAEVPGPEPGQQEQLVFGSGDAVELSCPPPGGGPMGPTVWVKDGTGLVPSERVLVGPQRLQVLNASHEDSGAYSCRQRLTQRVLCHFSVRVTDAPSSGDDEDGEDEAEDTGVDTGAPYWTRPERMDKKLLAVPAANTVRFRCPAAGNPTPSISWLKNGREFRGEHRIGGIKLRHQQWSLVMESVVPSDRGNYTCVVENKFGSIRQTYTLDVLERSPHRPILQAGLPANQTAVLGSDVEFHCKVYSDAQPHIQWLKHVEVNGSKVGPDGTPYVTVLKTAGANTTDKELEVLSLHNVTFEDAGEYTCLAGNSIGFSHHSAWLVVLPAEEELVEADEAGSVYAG

T2: recombinant human FGFR3 IIIb Fc fusion protein (human, UniProt P22607-2 23-377, limits assumed)
T2 construct: Bought reagent; the IIIb splice isoform is meant; also called rhFGFR3 IIIb Fc; hFGFR3 IIIb; not shown: Fc fragment (removable by Factor Xa, detected with anti-human IgG)
T2 sequence (looked up): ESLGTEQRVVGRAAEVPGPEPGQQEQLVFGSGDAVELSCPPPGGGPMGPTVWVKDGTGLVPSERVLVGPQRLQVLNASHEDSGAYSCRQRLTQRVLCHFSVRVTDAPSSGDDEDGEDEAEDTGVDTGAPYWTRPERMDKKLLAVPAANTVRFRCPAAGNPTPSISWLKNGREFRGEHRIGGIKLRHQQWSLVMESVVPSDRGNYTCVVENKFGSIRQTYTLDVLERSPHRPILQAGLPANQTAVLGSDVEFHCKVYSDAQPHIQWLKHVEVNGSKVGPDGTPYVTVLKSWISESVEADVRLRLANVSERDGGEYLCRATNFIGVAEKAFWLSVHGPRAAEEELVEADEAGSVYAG


What was measured:
[1] = biological target: T1, recombinant human FGFR3 IIIc Fc fusion …; experiment: SPR (Biacore T100), antibody captured on anti-mouse Ig, rhFGFR3 IIIc Fc as analyte, 37 C
Procedure: (§1) The binding affinities and kinetics of interaction of the monoclonal antibodies (15D8, 27H2, 2G4, and 4E7(7D12)) produced in Example 1 against recombinant human FGFR3 (IIIb and IIIc isoforms) Fc fusion protein (rhFGFR3 IIIb Fc or rhFGFR3 IIIc Fc) were measured by surface plasmon resonance using a Biacore™ T100 (Biacore) instrument.
(§2) Rabbit anti-mouse immunoglobulins (Biacore, Catalog No. BR-1005-14) were immobilized on carboxymethylated dextran CM4 sensor chips (Biacore, Catalog No. BR-1005-34) by amine coupling (Biacore, Catalog No. BR-1000-50) using a standard coupling protocol according to manufacturer's instructions.
(§3) The antibodies were captured in an individual flow cell at a flow rate of 10 μl/min. Injection time was varied for each antibody to yield approximately 40-50 RU of antibody captured for each cycle. Buffer or rhFGFR3 IIIb Fc (R&D Systems, Catalog No. 1264-FR-050) or rhFGFR3 IIIc Fc (R&D Systems, Catalog No. 766-FR-050) diluted in running buffer was injected sequentially over a reference surface (no antibody captured) and the active surface (antibody to be tested) for 300 sec at 60 μl/min. The dissociation phase was monitored for 30 minutes. The surface was then regenerated with two 60-seconds injection of 10 mM Glycine-HCl, pH 1.7 (made from Glycine pH 1.5 (Biacore, Catalog No. BR-1003-54) and pH 2.0 (Biacore, Catalog No. BR-1003-55)) at a flow rate of 60 μl/min. rhFGFR3 Fc concentrations tested were 0.62 nM to 40 nM.

[2] = biological target: T2, recombinant human FGFR3 IIIb Fc fusion …; experiment: ECL competition assay: inhibition of rhFGFR3 IIIb Fc binding to coated FGF1 (competitor FGF1)
Procedure: The antibodies were tested by ECL (Electrochemiluminescence) assay for inhibition of hFGFR3 IIIB binding to FGF-1. […] The plates then were washed 3 times with PBS and blocked with 200 μl of PBS containing 5% BSA (Sera Care Life Sciences, Catalog No. AP-4510-80) and 5 μg/mL heparin (Sigma, Catalog No. H4784) for 1 hour at room temperature. The antibodies (concentration range: 0.029-30 μg/mL) were incubated for 1 hour at room temperature with 1.7 μg/mL rhFGFR3 IIIb Fc (R&D Systems, Catalog No. 1264-FR-050) and 5 μg/mL heparin. After washing the plates 3 times with PBS, 25 μl of the antibody-receptor mixture was added to the plates for another hour at room temperature with agitation. The plates were washed three times with PBS and incubated with 25 μl of 1 μg/mL ST-anti-human IgG antibody (Meso Scale Discovery, Catalog No. R32AJ-1) for 1 hour at room temperature with agitation. The plates then were washed 3 times with PBS, and 150 μl of 1× read buffer (Meso Scale Discovery, Catalog No. R92TC-1) was added to each well before the plates were analyzed on a Sector Imager 2400 (Meso Scale Discovery) instrument.

[3] = biological target: T1, recombinant human FGFR3 IIIc Fc fusion …; experiment: SPR (Biacore T100), antibody captured on anti-mouse Ig, rhFGFR3 IIIc Fc as analyte, 25 C
Procedure: as §1, §2, §3

[4] = biological target: T2, recombinant human FGFR3 IIIb Fc fusion …; experiment: SPR (Biacore T100), antibody captured on anti-mouse Ig, rhFGFR3 IIIb Fc as analyte, 25 C
Procedure: as §1, §2, §3

[5] = biological target: T2, recombinant human FGFR3 IIIb Fc fusion …; experiment: SPR (Biacore T100), antibody captured on anti-mouse Ig, rhFGFR3 IIIb Fc as analyte, 37 C
Procedure: as §1, §2, §3

| Binder | Kd [1] [nM] | koff [1] [s⁻¹] | kon [1] [M⁻¹ s⁻¹] | IC50 [2] [nM] | Maximum Neutralization (%) [2] [%] | Kd [3] [nM] | koff [3] [s⁻¹] | kon [3] [M⁻¹ s⁻¹] | Kd [4] [nM] | koff [4] [s⁻¹] | kon [4] [M⁻¹ s⁻¹] | Kd [5] [nM] | koff [5] [s⁻¹] | kon [5] [M⁻¹ s⁻¹] |
| --- | --- | --- | --- | --- | --- | --- | --- | --- | --- | --- | --- | --- | --- | --- |
| anti-FGFR3 monoclonal antibody 4E7 (antibody, mouse IgG1, kappa, V domains shown, Murine IgG1/kappa from hybridoma; also called 4E7 IgG1; 4E7 (7D12)) VH: EIQLQQSGPELVKPGASVKVSCKASGYAFTSYNMYWVKQSHGKSLEWIGYIDPYNGGTRYNQKFKGKATLTVDKSSSTAYMHLNSLTSEDSAVYYCAREGGNYEAWFAYWGQGTLVTVSA VL: QIVLTQSPALMSASPGEKVTMTCSASSSVSYMYWYQQKPRSSPKPWIYLTSNLASGVPARFSGSGSGTSYSLTISSMEAEDAATYYCQQWSSNPLTFGAGTKLELKR | 2.2 | 0.00017 | 94000 | 18.5 | 91.2 | 2.6 | 0.00019 | 110000 | 3.3 | 0.00037 | 150000 | 3.3 | 0.00023 | 74000 |
| 4E7 Fab (Fab, V domains shown, not shown: a dimerising Fc or GST, Fab fragment of murine 4E7; preparation not described; also called anti-FGFR3 Fab fragment 4E7) VH: EIQLQQSGPELVKPGASVKVSCKASGYAFTSYNMYWVKQSHGKSLEWIGYIDPYNGGTRYNQKFKGKATLTVDKSSSTAYMHLNSLTSEDSAVYYCAREGGNYEAWFAYWGQGTLVTVSA VL: QIVLTQSPALMSASPGEKVTMTCSASSSVSYMYWYQQKPRSSPKPWIYLTSNLASGVPARFSGSGSGTSYSLTISSMEAEDAATYYCQQWSSNPLTFGAGTKLELKR | – | – | – | 69.5 | 92.2 | – | – | – | – | – | – | – | – | – |
| 2G4 Fab (Fab, V domains shown, not shown: a dimerising Fc or GST, Fab fragment of murine 2G4; preparation not described; also called anti-FGFR3 Fab fragment 2G4) VH: EIQLQQSGPELVKPGASVKVSCKASGYAFTSYNMYWVKQSHGKSLEWIGYIDPYNGGTRDNQKFKGKATLTVDKSSSTAYMHLNSLTSEDSAVYYCAREGGNYEAWFAYWGQGTLVTVSA VL: QIVLTQSPALMSASPGEKVTMTCSASSSVSYMYWYQQKPRSSPKPWIYLTSNLASGVPARFSGSGSGTSYSLTISSMEAEDAATYYCQQWSSNPLTFGAGTKLELKR | – | – | – | 65 | 96.2 | – | – | – | – | – | – | – | – | – |
| 27H2 Fab (Fab, V domains shown, not shown: a dimerising Fc or GST, Fab fragment of murine 27H2; preparation not described; also called anti-FGFR3 Fab fragment 27H2) VH: EIQLQQSGPELVKPGASVKVSCKASGYAFTSYNMYWVKQSHGKSLEWIGYIDPYNGGTRYNQKFKGKATMTVDKSSSTAYMHLNSLTSEDSAVYYCAREGGNYEAWFAYWGQGTLVTVSA VL: QIVLTQSPALMSASPGEKVTMTCSASSSVSYMYWYQQKPRSSPKPWIYLTSNLASGVPARFSGSGSGTSYSLTISSMEAEDAATYYCQQWSSNPLTFGAGTKLELKR | – | – | – | 53.5 | 95.8 | – | – | – | – | – | – | – | – | – |
| 15D8 Fab (Fab, V domains shown, not shown: a dimerising Fc or GST, Fab fragment of murine 15D8; preparation not described; also called anti-FGFR3 Fab fragment 15D8) VH: EIQLQQSGPELVKPGASVKVSCKASGYAFTSYNMYWVKQSHGKSLEWIGYIDPYNGGTSYNQKFKGKATLTVDKSSSTAYMHLNSLTSEDSAVYYCAREGGNYEAWFAYWGQGTLVTVSA VL: QIVLTQSPALMSASPGEKVTMTCSASSSVSYMYWYQQKPRSSPKPWIYLTSYLASGVPARFSGSGSGTSYSLTISSMEAEDAATYYCQQWSSYPLTFGAGTKLELKR | – | – | – | 63.8 | 91.7 | – | – | – | – | – | – | – | – | – |

Other lines, results leading:

| Kd [1] [nM] | koff [1] [s⁻¹] | kon [1] [M⁻¹ s⁻¹] | IC50 [2] [nM] | Maximum Neutralization (%) [2] [%] | Kd [3] [nM] | koff [3] [s⁻¹] | kon [3] [M⁻¹ s⁻¹] | Kd [4] [nM] | koff [4] [s⁻¹] | kon [4] [M⁻¹ s⁻¹] | Kd [5] [nM] | koff [5] [s⁻¹] | kon [5] [M⁻¹ s⁻¹] | Binder |
| --- | --- | --- | --- | --- | --- | --- | --- | --- | --- | --- | --- | --- | --- | --- |
| – | – | – | 13.3 | 93.9 | – | – | – | – | – | – | – | – | – | anti-FGFR3 monoclonal antibody 7D12 (antibody, mouse IgG1, kappa, V domains shown, Murine IgG1/kappa from a separate hybridoma; also called 7D12 IgG1; 4E7 (7D12)) VH: EIQLQQSGPELVKPGASVKVSCKASGYAFTSYNMYWVKQSHGKSLEWIGYIDPYNGGTRYNQKFKGKATLTVDKSSSTAYMHLNSLTSEDSAVYYCAREGGNYEAWFAYWGQGTLVTVSA VL: QIVLTQSPALMSASPGEKVTMTCSASSSVSYMYWYQQKPRSSPKPWIYLTSNLASGVPARFSGSGSGTSYSLTISSMEAEDAATYYCQQWSSNPLTFGAGTKLELKR |
| – | – | – | 50 | 88.8 | – | – | – | – | – | – | – | – | – | 7D12 Fab (Fab, V domains shown, not shown: a dimerising Fc or GST, preparation not described; also called anti-FGFR3 Fab fragment 7D12) VH: EIQLQQSGPELVKPGASVKVSCKASGYAFTSYNMYWVKQSHGKSLEWIGYIDPYNGGTRYNQKFKGKATLTVDKSSSTAYMHLNSLTSEDSAVYYCAREGGNYEAWFAYWGQGTLVTVSA VL: QIVLTQSPALMSASPGEKVTMTCSASSSVSYMYWYQQKPRSSPKPWIYLTSNLASGVPARFSGSGSGTSYSLTISSMEAEDAATYYCQQWSSNPLTFGAGTKLELKR |
| 2.1 | 0.0002 | 96000 | 15.4 | 99.6 | 2.1 | 0.00016 | 75000 | 3 | 0.00026 | 90000 | 2.1 | 0.00019 | 100000 | anti-FGFR3 monoclonal antibody 27H2 (antibody, mouse IgG1, kappa, V domains shown, Murine IgG1/kappa from hybridoma; also called 27H2 IgG1; murine antibody 27H2) VH: EIQLQQSGPELVKPGASVKVSCKASGYAFTSYNMYWVKQSHGKSLEWIGYIDPYNGGTRYNQKFKGKATMTVDKSSSTAYMHLNSLTSEDSAVYYCAREGGNYEAWFAYWGQGTLVTVSA VL: QIVLTQSPALMSASPGEKVTMTCSASSSVSYMYWYQQKPRSSPKPWIYLTSNLASGVPARFSGSGSGTSYSLTISSMEAEDAATYYCQQWSSNPLTFGAGTKLELKR |
| 2.6 | 0.00026 | 100000 | 11.1 | 64.9 | 1.1 | 0.00011 | 100000 | 3.2 | 0.00032 | 120000 | 1.4 | 0.00023 | 150000 | anti-FGFR3 monoclonal antibody 2G4 (antibody, mouse IgG1, kappa, V domains shown, Murine IgG1/kappa from hybridoma; also called 2G4 IgG1; murine antibody 2G4) VH: EIQLQQSGPELVKPGASVKVSCKASGYAFTSYNMYWVKQSHGKSLEWIGYIDPYNGGTRDNQKFKGKATLTVDKSSSTAYMHLNSLTSEDSAVYYCAREGGNYEAWFAYWGQGTLVTVSA VL: QIVLTQSPALMSASPGEKVTMTCSASSSVSYMYWYQQKPRSSPKPWIYLTSNLASGVPARFSGSGSGTSYSLTISSMEAEDAATYYCQQWSSNPLTFGAGTKLELKR |
